The values that follow come from article PMC4829874.

The target of the assay is protein A/G. As to the kind of experiment: SPR; real-time, microfluidic cell on the nanostructured gold film, white light and CCD detector, 0.1 Hz; protein A/G (0.5 mg/mL, 1 h, 30 uL/min) immobilised, flushed with PBS; IgG 10 ug/mL injected at 30 uL/min; 10 mM PBS.

IgG (antibody): the resonance peak shift at 10 ug/mL IgG amounted to 2 nm.
